The series deals with the molecule itself. Briefly: SEC.

The record followed here is PMC8163212 (Chemical Science, 2020).

B1: UVR8 mutant W198/250/302F (6Wd + 4Wc), on the W400F background (receptor)
chain: MAEDMAADEVTAPPRKVLIISAGASHSVALLSGDIVCSWGRGEDGQLGHGDAEDRPSPTQLSALDGHQIVSVTCGADHTVAYSQSGMEVYSWGWGDFGRLGHGNSSDLFTPLPIKALHGIRIKQIACGDSHCLAVTMEGEVQSWGRNQNGQLGLGDTEDSLVPQKIQAFEGIRIKMVAAGAEHTAAVTEDGDLYGWGFGRYGNLGLGDRTDRLVPERVTSTGGEKMSMVACGWRHTISVSYSGALYTYGFSKYGQLGHGDLEDHLIPHKLEALSNSFISQISGGWRHTMALTSDGKLYGWGFNKFGQVGVGNNLDQCSPVQVRFPDDQKVVQVSCGWRHTLAVTERNNVFAWGRGTNGQLGIGESVDRNFPKIIEALSVDGASGQHIESSNIDPSSGKSFVSPAERYAVVPDETGLTDGSSKGNGGDISVPQTDVKRVRI
Regarding B1, the binding result is recorded as “binds”.
